The values below are quoted from earlier work in paper PMC11442857.

The target of this series is Bovine serum albumin, fatty-acid-free (FAF-BSA) (UniProt P02769). As to the kind of experiment: Analytical ultracentrifugation, sedimentation equilibrium. Conditions: pH 7.2, 10 °C, PBS (concentration not stated).
Sequence of UniProt P02769 (P02769 whole entry): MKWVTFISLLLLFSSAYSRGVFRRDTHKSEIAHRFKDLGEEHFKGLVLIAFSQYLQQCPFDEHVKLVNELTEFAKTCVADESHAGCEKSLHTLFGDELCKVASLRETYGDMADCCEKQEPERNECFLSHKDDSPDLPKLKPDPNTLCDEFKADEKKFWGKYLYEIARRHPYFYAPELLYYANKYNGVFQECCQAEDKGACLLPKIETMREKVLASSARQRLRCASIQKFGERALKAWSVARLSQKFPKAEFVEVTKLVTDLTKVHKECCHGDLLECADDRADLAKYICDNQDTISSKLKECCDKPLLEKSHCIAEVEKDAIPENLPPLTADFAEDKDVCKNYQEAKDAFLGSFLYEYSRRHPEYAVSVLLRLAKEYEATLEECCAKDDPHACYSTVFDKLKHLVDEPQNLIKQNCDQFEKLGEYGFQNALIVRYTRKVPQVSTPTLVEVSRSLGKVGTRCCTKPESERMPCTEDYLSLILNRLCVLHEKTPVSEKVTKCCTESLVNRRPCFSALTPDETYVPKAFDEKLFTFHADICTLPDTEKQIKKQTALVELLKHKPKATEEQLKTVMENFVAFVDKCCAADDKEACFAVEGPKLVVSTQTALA

As for “Bovine serum albumin, fatty-acid-free (FAF-BSA)”, the Kd dimer was 4.5 mM.
